The record followed here is US6579698.

Data set [1] has as its target protease (not named in the Ki determination). Nature of the data set: enzyme inhibition kinetics with succinyl-Ala-Ala-Pro-Phe-p-nitroanilide in 50 mM Tris pH 8; steady-state rate against the rate without inhibitor; equations of Goldstein.
Data set [2] addresses T1, Streptomyces Subtilisin Inhibitor (SSI), SSI-like protein produced by PG1181.
T1 chain: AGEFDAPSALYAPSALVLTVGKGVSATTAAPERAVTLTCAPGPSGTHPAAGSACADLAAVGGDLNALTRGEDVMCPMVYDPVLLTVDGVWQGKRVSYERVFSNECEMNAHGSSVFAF

Substitutions are numbered along the chain they refer to. Numbers in names are those of the source.

B1: M73P D83C SSI (protein)
chain: T1 chain with M77P, D87C
Regarding B1, the inhibitory constant (Ki) in data set [1] was found to be 3 nM.

B2: subtilisin BPN′ (protein)
chain: AQSVPYGVSQIKAPALHSQGYTGSNVKVAVIDSGIDSSHPDLKVAGGASMVPSETNPFQDNNSHGTHVAGTVAALNNSIGVLGVAPSASLYAVKVLGADGSGQYSWIINGIEWAIANNMDVINMSLGGPSGSAALKAAVDKAVASGVVVVAAAGNEGTSGSSSTVGYPGKYPSVIAVGAVDSSNQRASFSSVGPELDVMAPGVSIQSTLPGNKYGAYNGTSMASPHVAGAAALILSKHPNWTNTQVRSSLENTTTKLGDSFYYGKGLINVQAAAQ
B2: the “protease activity (hydrolysis of N-succinyl-Ala-Ala-Pro-Phe-p-nitroanilide, increase in absorbance at 410 nm)” value in data set [2] is “SSI inhibits subtilisin BPN′ and a Y217L variant of BPN′”.

B3: Y217L variant of subtilisin BPN′ (protein)
chain: B2 chain with Y217L
Consider B3, for which the “protease activity (hydrolysis of N-succinyl-Ala-Ala-Pro-Phe-p-nitroanilide, increase in absorbance at 410 nm)” value in data set [2] was “SSI inhibits subtilisin BPN′ and a Y217L variant of BPN′”.

One may read the Ki as the dissociation constant of the complex between target and ligand, obtained from inhibition or displacement. Low readings indicate higher affinity, high ones lower affinity.
